Data reported in the RNAGym collection of RNA variant scans (doi:10.1073/pnas.2313332121).
This sample holds only a part of the variants without activity.

B1: TPR 5TU (parent)
chain: GGAUCUUCUCGAUCUAACAAAAAAGACAAAUCUGCCACAAAGCUUGAGAGCAUCUUCGGAUGCAGAGGCGGCAGCCUUCGGUGGCGCGAUAGCGCCAACGUUCUCAACUAUGACACGCAAAACGCGUGCUCCGUUGAAUGGAGUUUAUCAUG

Variants of: B1
Experiment: polymerase ribozyme fitness, log enrichment relative to wild type (log ratio); higher = more active; in vitro selection for triplet polymerase activity
Outline: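 A heterodimeric triplet polymerase ribozyme had each of its subunits mutagenized by PCR into a library, which was transcribed. One round of in vitro selection, done in triplicate, annealed each library with a biotinylated primer, its partner subunit and triplets, then incubated it frozen at −7 °C before gel excision of extended constructs, streptavidin-bead capture and RT-PCR. Fitness is the logarithm of genotype enrichment relative to wild-type enrichment, based on Illumina sequencing of inputs and outputs and inverse-variance-weighted replicate averages. A base-2 logarithm is used, and genotypes were kept only with ≥10 input reads and ≥1 read per output.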

Variant	polymerase ribozyme fitness (log ratio)
GGAUCUUCUCGAUCUAACAAAAAAGACACAUCUGCCGCAAAGCUUGAGAGCAUCUUCGGAUGCACAGGCGGCAGGCAUCGGUGGCGCGAUAGCGCCGACGUUCUCAACUAUGACACGUAAAAUGCGUGCUCCGUUGAAUGGAGUUUAUCAUG [A29C A37G G65C C75G U77A A97G C118U C123U]	≤ -4.2
GGAUCUUCUCGAUCUAACAAAAAAGACACAUCUGCCACAAAGCUUGAGAGCAUCUUGGGAUGCAGAGGCGACAGCCUUCGGUGGCGCGACAGCGCCAACGUUCUCAACUAUGACACGCAAAACGCGUGCUCCGUUGAAUGGAGUUUAUCAUG [A29C C57G G71A U90C]	≤ -4.2
GGAUCUUCUCGAUCUAACAAAAAAGACUAAUCGGCCACAAAGGUUGCGAGCAUCGACGGAUGCAGAGGCGGCAGCCUUCGGUGACGGGAUAGCGCCAACGUUCUCGCCUAUGACACGCAAAACGCGUGCUCCUUUGAAUUGAGUUUAUCAUG [A28U U33G C43G A47C U55G U56A G84A C87G A106G A107C G133U G140U]	≤ -4.2
GGAUCUUCUCGAUCUAACAAAAAAGACACAUCUGCGACAAAGCUUGAGAGCAUCUUCGGAUGCAGAGGCGGCAGCCUCCGGUGGCGCGAUAGGGCCGACGUUCUCAACUAUGACACGCAAAACGCGUGCUCCGUUGAAUGGAGUUUAUCAUG [A29C C36G U78C C93G A97G]	≤ -4.2
GGAUCUUCUCGAUCUAACAAAAAAGACACAUCUGCCACAAAGCUUGAGGGCAUCUUCGGAUGCAGAGGGGGCAGCCGUUGGUGGCGCGAUAGCGCCAACGUUCUCAACUAUGACAUGCAAAACGCGUGCUCCGUUGAAUGGAGUUAAUCAUG [A29C A49G C69G U77G C79U C116U U146A]	≤ -4.2
GGAUCUUCUCGAUCUAACAAAAAAGACACAUCUGCCACAAAGCUUGUGAGCAUCUUCGGAUGCAGAGGCGGCAGCGUUAGGUGGCGCGAUAGCGCCUAAGUUCUCAACUAUGACACGCAAAACGGGUGCUCCGAUGAAUGGAGGUUAUCAUG [A29C A47U C76G C79A A97U C99A C125G U134A U144G]	≤ -4.2
GGAUCUUCUCGAUCUAACAAAAAAGACACAUCUGCCACCAAGCUUGAGAGCAACUUCGGAUGCAGAGGCGGCAGCCUUCGGUGGCGCGAUAGCGCCAACGUUCUCAACUAUGACACGCAAAGAGCGUGCUCCGUGGAAUGGAGUUAAUCAUG [A29C A39C U53A A122G C123A U135G U146A]	≤ -4.2
GGAUCUUCUCGAUCUAACAAAAAAGACACAUCUGCCACAAAGCUUGAGAGCAUCUUCGGAUGCAGAGGCGGCAGCCUUCGGUGACGCGAUAGCGCCAACGUUCUCAACUAUGACACGCAAAACGCGUGCUCCGUUGAAUGGAGUUUAUCAUG [A29C G84A]	-4.17
GGAUCUUCUCGAUCUAACAAAAAAGACUAAUCUGCCACAAAGCUUGAGAGCAUCGUCGGAUGCAGAGGCGGCAGCCUUCGGUGGGGCAUUAGCGCCAACGUUUUCAACUAUGACACGCAAAACGCGUGCUCCGUUGAAUGGACUUUAUCAUG [A28U U55G C85G G88A A89U C103U G143C]	≤ -4.2
GGAUCUUCUCGAUCUAACAAAAAAGACACAUCUGCCACAAAGCUUGAGAGCGUCUUCGGAUGCAGAGGCGGCAGCCUUCGGUGGCGUGAUAGCGCCAACCUUCUCAACUAUGACACGCAAAACGCGUGCUCCGUUGAUAGGAGUUUCUCAUG [A29C A52G C87U G100C A138U U139A A147C]	≤ -4.2
GGAUCUUCUCGAUCUAACAAAAAAGACUAAUCUGCCACAAAGCUAGAGAGCAUCUUUGGCUGCAGAGGCGGCAGCCUUCGGUGUCGCGAUAGCGCCAUCGUUCUCAACUAUGACACCCAAAACGCGUGCUCCGUUGAAUGGAGUUUAUCAUG [A28U U45A C57U A60C G84U A98U G117C]	≤ -4.2
GGAUCUUCUCGAUCUAACAAAAAAGACACAUCUGCCACGAAGCUUGAGAGCAUCUUCGGAUGCAGAGGCGGCAGCCUUCGGUGGCGCGAUAGCGCCAACGUUCUCAACUAUGACACGCAAAACGCGUGCUCCGUUGAAAGGAGUUUAUCAUG [A29C A39G U139A]	≤ -4.2
GGAUCUUCUCGAUCUAACAAAAAAGACUAAUCUGCCACAAAGCUUGAGAGCAUCUUCGGAUGCAGAGGCGGCAGCCUUCGGUGGCGCAAUAGCGCCAACGUUCUCAGCUAUGACACGCAAAACGCGUGCUCCGUUGAAUGGCGUUUAUCAAG [A28U G88A A107G A142C U151A]	≤ -4.2
GGAUCUUCUCGAUCUAACAAAAAAGACUAAUCUGCCACAAAGCUAGAGAGCAUCUUUGGGUGCAGAGGCGGCAGGCUUCGGUGGCGCGAUAGCACCAACGUUCUCAACUAUGACACGCAAAACGCCUGCUCCGUUGAAUGGAGUUUAUCAUG [A28U U45A C57U A60G C75G G94A G126C]	≤ -4.2
GGAUCUUCUCGAUCUAACAAAAAAGACACAUUUGGCACAAAGCUUGAGAGCAUCUUCGGAUGCAGUGGCGGCAGCCUUCGGUGGCGAGAUAGCCCCAACGUUCUCAUCUAUGACACGCAAAACGUGUGCUCCGUUGAAUGGAGUUUAUCAUG [A29C C32U C35G A66U C87A G94C A107U C125U]	≤ -4.2
GGAUCUUCUCGAUCUAACAAAAAAGACACAUCUGCCACAAAGCUUGAGAGCAUCAUUGGAUGCAGAGGCGGCAGCCUUCGGUGGCGCGAGCGCGCCAACGUUCUCAACUAUGACACGCAAAACGCGUGCUCCGUUGAAUGGAGUUUAGCAUG [A29C U55A C57U U90G A91C U148G]	≤ -4.2
GGAUCUUCUCGAUCUAACAAAAAAGACACAUCUGCCACAAAGCUUGAGAGCCUUUUCGGAUGCAGAGGCGGCAGCCUUCGGCGGCGCGAAAGCGCCAACGUUCUCAACUAUGACACGCAAAACGCGUGCUCCGUUAAAUGGAGUUUAUCAUG [A29C A52C C54U U82C U90A G136A]	≤ -4.2
GGAUCUUCUCGAUCUAACAAAAAAGACACAUCUGCCACAAAGCUUGAGAGUAUCUUCGGAUGCAGAGGCGGCAGCCUUCGGUCGCGCGAUAGCGUCAACGUUCUCAACUAUGACACGCAAAACGCGUGCUCCGUUGGAUGGACUUUAUCAUG [A29C C51U G83C C95U A137G G143C]	≤ -4.2
GGAUCUUCUCGAUCUAACAAAAAAGACACAUAUGCCACAAAGCUUGAGAGCAUCUUCGGAUGCAGAGGCGGCAGCCUUCGGUGGCGCGAUAGCGCCAACGUUCUCAACUAUGACACGCAAAACGCGUGCUCCGUUGAAUGGAGUUUAUCAUG [A29C C32A]	≤ -4.2
